{"source": "patent US20250332297A1", "about": "“DLL3-SPECIFIC BINDING CONSTRUCTS AND THEIR USE IN RADIOTHERAPY” (MOLECULAR PARTNERS AG, priority 2024, published 2025)", "molecules": {"B1": {"name": "MAM279 conjugate: SEQ ID NO: 15 conjugated to DOTAM-maleimide, labelled with Pb-212 (natural lead in PK studies) (conjugate)", "chain": "GSDLGKKLLEAARAGQDDEVRELLKAGADVNAKDYFSHTPLHLAARNGHLKIVEVLLKAGADVNAKDFAGKTPLHLAADAGHLEIVEVLLKAGADVNAQDIFGKTPADIAADAGHEDIAEVLQKAAGSPTPTPTTPTPTPTTPTPTPTGSDLGKKLLAAAAQGQDDEVRELLKAGANVNAKDLFGYTPLHLAAWRGHLEIVEVLLKAGADVNAKDAAGETPLHLAAWFGHLEIVEVLLKAGADVNAQDLQGKTPADLAAKEGHEDIAEVLQKAAGSGSC", "modifications": "DOTAM-maleimide, Pb-212 label; Ankyrin repeat protein with tag (GS-MAM279-tag)"}, "B2": {"name": "MAM160: Two domain (2D) ankyrin repeat protein: serum albumin-specific domain (SEQ ID NO: 7), PT linker, DLL3-specific domain MAM120 (protein)", "chain": "DLGKKLLEAARAGQDDEVRELLKAGADVNAKDYFSHTPLHLAARNGHLKIVEVLLKAGADVNAKDFAGKTPLHLAADAGHLEIVEVLLKAGADVNAQDIFGKTPADIAADAGHEDIAEVLQKAAGSPTPTPTTPTPTPTTPTPTPTGSDLGTKLLSAAADGQDDEVRELLQAGADVNAKDLFGYTPLHLAAWRGHLEIVEVLLEAGADVNAKDAAGLTPLHLAAWFGHLEIVEVLLEAGADVNAQDVQGVTPADLAAKEGHEDIAEVLQQAA", "modifications": "Ankyrin repeat protein (MAM160)"}, "B3": {"name": "MAM279: Two domain (2D) ankyrin repeat protein: serum albumin-specific domain (SEQ ID NO: 7), PT linker, DLL3-specific domain of MAM093 (protein)", "chain": "DLGKKLLEAARAGQDDEVRELLKAGADVNAKDYFSHTPLHLAARNGHLKIVEVLLKAGADVNAKDFAGKTPLHLAADAGHLEIVEVLLKAGADVNAQDIFGKTPADIAADAGHEDIAEVLQKAAGSPTPTPTTPTPTPTTPTPTPTGSDLGKKLLAAAAQGQDDEVRELLKAGANVNAKDLFGYTPLHLAAWRGHLEIVEVLLKAGADVNAKDAAGETPLHLAAWFGHLEIVEVLLKAGADVNAQDLQGKTPADLAAKEGHEDIAEVLQKAA", "modifications": "Ankyrin repeat protein (MAM279)"}, "B4": {"name": "Rova: Rova antibody, DLL3-binding benchmark antibody used as positive control and comparison (antibody, chains of the INN, looked up, V domains shown)", "VH": "QVQLVQSGAEVKKPGASVKVSCKASGYTFTNYGMNWVRQAPGQGLEWMGWINTYTGEPTYADDFKGRVTMTTDTSTSTAYMELRSLRSDDTAVYYCARIGDSSPSDYWGQGTLVTVSS", "VL": "EIVMTQSPATLSVSPGERATLSCKASQSVSNDVVWYQQKPGQAPRLLIYYASNRYTGIPARFSGSGSGTEFTLTISSLQSEDFAVYYCQQDYTSPWTFGQGTKLEIK"}}, "key": {"[1]": {"experiment": "Dose response finding (tolerability) in WT CD1 mice", "quoted_text": "Animals were under observation daily and 3× per week animals were weighed. […] The data were expressed as % of body weight (BW) change (relative to the initial BW −7 day before the treatment).\nAnimals were under observation daily and 3× per week animals were weighed. […] The data were expressed as % of body weight (BW) change (relative to the BW seven days before the treatment, i.e. the initial BW at day −7) (average+/−SEM)."}, "human serum albumin": {"biological_target": "human serum albumin (Homo sapiens, UniProt P02768)", "details": "class in words (Low, Mid, High); Table 5", "protocol": "For SPR analysis, the free Cysteine of the 2D DARPins was capped with Iodoacetamide (IAM). A surface plasmon resonance (SPR) assay was then used to determine the binding kinetics of the three 2D DARPins to human or mouse serum albumin. Various concentrations of 2D DARPins starting from 2000 nM were applied to immobilized human serum albumin (HSA) or mouse serum albumin (MSA) for on-rate and off-rate measurements.\nThe data were generated using a BioRad ProteOn instrument with SPR running buffer (PBS, pH 7.4 containing 0.05% Tween 20®). A HC200M chip (Xantec) was conditioned according to the manufacturer's protocol. The chip was coated with purified human serum albumin (HSA, CSL) or mouse serum albumin (MSA, Sigma-Aldrich) in NaOAc pH5.0 to reach a signal intensity of ˜380 (HSA) or ˜630 (MSA) RU for the analysis of Intermediate HSA affinity 2D DARPin and High HSA affinity 2D DARPin; ˜1125 (HSA) or ˜1965 (MSA) for the analysis of Low HSA affinity 2D DARPin. All analytes (3-fold dilution ranging from 2000-24.69 nM) were injected in succession for 240 s (50 μl/min) and dissociation was recorded for 600 s (50 μl/min). The data was double referenced (control spot and buffer injection) and fitted to a 1:1 Langmuir model. The obtained SPR traces were used to determine binding parameters."}, "Cyno DLL3-ECD": {"biological_target": "Cyno DLL3-ECD", "experiment": "SPR, immobilized DARPin, binding of cyno DLL3-ECD (Example 17)", "design": "species or system cynomolgus monkey", "details": "immobilized biotinylated DARPin, DLL3-ECD as analyte, 1:1 Langmuir, Table 19", "description": "(§1) Kinetic binding parameters and binding affinities of two domain (2D) ankyrin repeat protein MAM279 and single domain (1 D) ankyrin repeat protein MAM093 to DLL3 from different species were determined. The DLL3-specific ankyrin repeat domain of MAM093 is identical to the DLL3-specific ankyrin repeat domain comprised in MAM279.\n(§2) SPR multi-trace analyses were performed similarly as described in Examples 1 and 11. Here, the binding kinetics of immobilized DARPin proteins to the extracellular domain of DLL3 (DLL3-ECD) from human, cynomolgus monkey, mouse and pig were determined. Various concentrations of recombinant DLL3-ECD starting from 500 nM were applied to immobilized biotinylated 2D DARPin (MAM279; SEQ ID NO: 11) or 1 D DARPin (MAM093; SEQ ID NO: 1) (both with a Glycine-Serine (GS) at the N-terminal end) for on-rate and off-rate measurements.\n(§3) Streptavidin SAHC200M (Xantec) SPR chip was conditioned according to the manufacturer's protocol. Biotinylated DARPins were immobilized to a coating density of 27 resonance units (RU) for 1D DARPin and 25 RU for 2D DARPin. All analytes (3-fold dilution ranging from 500-6.17 nM) were injected in succession for 240 s and dissociation was recorded for 10800 s using a constant flow of 100 μl/min."}, "mouse DLL3-ECD": {"biological_target": "T1, mouse DLL3-ECD (Mus musculus, UniProt O88516)", "T1 construct": "the extracellular domain of DLL3 (DLL3-ECD) from human, cynomolgus monkey, mouse and pig", "T1 sequence (O88516 33-490 limits assumed)": "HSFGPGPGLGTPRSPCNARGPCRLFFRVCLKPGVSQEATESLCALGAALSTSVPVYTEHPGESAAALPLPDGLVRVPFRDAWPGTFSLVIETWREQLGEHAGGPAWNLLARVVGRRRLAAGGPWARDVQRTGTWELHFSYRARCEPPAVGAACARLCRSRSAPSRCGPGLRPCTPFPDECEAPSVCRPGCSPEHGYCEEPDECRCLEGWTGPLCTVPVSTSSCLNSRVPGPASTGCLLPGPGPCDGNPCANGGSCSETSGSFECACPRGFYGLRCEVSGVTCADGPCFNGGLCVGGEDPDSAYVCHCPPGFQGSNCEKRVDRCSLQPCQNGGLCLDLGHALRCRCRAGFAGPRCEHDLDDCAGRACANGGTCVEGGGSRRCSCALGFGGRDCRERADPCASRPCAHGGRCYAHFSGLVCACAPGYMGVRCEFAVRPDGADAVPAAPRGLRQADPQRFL", "experiment": "SPR, immobilized DARPin, binding of mouse DLL3-ECD (Example 17)", "details": "immobilized biotinylated DARPin, DLL3-ECD as analyte, 1:1 Langmuir, Table 20", "description": "as §1, §2, §3"}, "Human DLL3-ECD": {"biological_target": "T2, Human DLL3-ECD (Homo sapiens, UniProt Q9NYJ7)", "T2 construct": "the extracellular domain of DLL3 (DLL3-ECD) from human, cynomolgus monkey, mouse and pig", "T2 sequence (Q9NYJ7 27-492 limits assumed)": "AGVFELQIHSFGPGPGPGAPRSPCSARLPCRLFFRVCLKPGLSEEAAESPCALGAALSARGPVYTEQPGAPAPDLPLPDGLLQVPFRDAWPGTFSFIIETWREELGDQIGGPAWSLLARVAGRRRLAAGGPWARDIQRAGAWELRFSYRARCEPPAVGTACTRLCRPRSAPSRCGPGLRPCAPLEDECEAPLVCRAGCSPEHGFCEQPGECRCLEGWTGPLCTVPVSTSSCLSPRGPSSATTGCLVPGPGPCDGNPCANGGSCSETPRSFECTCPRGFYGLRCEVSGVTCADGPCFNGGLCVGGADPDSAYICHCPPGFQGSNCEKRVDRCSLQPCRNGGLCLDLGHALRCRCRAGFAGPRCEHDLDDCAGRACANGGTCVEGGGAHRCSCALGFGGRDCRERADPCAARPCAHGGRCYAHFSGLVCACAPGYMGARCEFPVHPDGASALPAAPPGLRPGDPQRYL", "experiment": "SPR, immobilized DARPin, binding of human DLL3-ECD (Example 17)", "details": "immobilized biotinylated DARPin, DLL3-ECD as analyte, 1:1 Langmuir, Table 19", "description": "as §1, §2, §3"}, "pig DLL3-ECD": {"biological_target": "pig DLL3-ECD", "experiment": "SPR, immobilized DARPin, binding of pig DLL3-ECD (Example 17)", "details": "immobilized biotinylated DARPin, DLL3-ECD as analyte, 1:1 Langmuir, Table 20", "description": "as §1, §2, §3"}, "hDLL3-MC38 tumors": {"system": "hDLL3-MC38 tumors", "experiment": "Efficacy (tumor growth) in hDLL3-MC38 tumor model", "type": "in vivo, mouse", "details": "tumor volume in mm^3, hDLL3-MC38", "description": "To determine the efficacy of radio-labelled (Pb-212) DARPin (MAM160) conjugate in inhibiting the growth of tumors that express DLL3, different dose regimens (single or repeated dose) of the conjugate were tested in a mouse tumor model (hDLL3-MC38).\nThe first injections were done 7 days after the xenografts. Animals were under observation daily and 3× per week tumors were measured by caliper. Animals were sacrificed when tumors reached 1000 mm^3 or if termination criteria were met. The data were expressed as average+/−SEM of tumor volume in mm^3."}}, "data": [{"molecule": "B1", "values": [{"measurement": "appearance of animals", "setting": "[1]; Pb-212 labelled conjugate injected once at 10 μCi, 20 μCi and 30 μCi i.v., WT CD1 mice", "value": "animals appeared healthy and active"}, {"measurement": "body weight (BW) change", "setting": "[1]; Pb-212 labelled conjugate injected once at 10 μCi, 20 μCi and 30 μCi, WT CD1 mice, recovered within up to about 10 days", "value": "Minimal weight loss"}, {"measurement": "toxicity", "setting": "[1]; Pb-212 labelled conjugate, injected dose of 60 μCi, WT CD1 mice", "value": "Toxicity was observed"}, {"measurement": "hematology profile (white blood cells, lymphocytes, monocytes, neutrophils)", "setting": "[1]; within up to 28 days after injection of 10 μCi, 20 μCi and 30 μCi doses (data not shown)", "value": "complete recovery"}]}, {"molecule": "B2", "values": [{"measurement": "HSA affinity", "setting": "human serum albumin", "value": "High"}]}, {"molecule": "B3", "values": [{"measurement": "Kd", "setting": "Cyno DLL3-ECD", "value": 8.88, "unit": "nM"}, {"measurement": "Koff Cyno DLL3-ECD", "setting": "Cyno DLL3-ECD", "value": 0.000939, "unit": "s⁻¹"}, {"measurement": "Kon Cyno DLL3-ECD", "setting": "Cyno DLL3-ECD", "value": 106000, "unit": "M⁻¹ s⁻¹"}, {"measurement": "Kd", "setting": "mouse DLL3-ECD", "value": 83.9, "unit": "nM"}, {"measurement": "Koff mouse DLL3-ECD", "setting": "mouse DLL3-ECD", "value": 0.00282, "unit": "s⁻¹"}, {"measurement": "Kon mouse DLL3-ECD", "setting": "mouse DLL3-ECD", "value": 33700, "unit": "M⁻¹ s⁻¹"}, {"measurement": "Kd", "setting": "Human DLL3-ECD", "value": 0.127, "unit": "nM"}, {"measurement": "Koff Human DLL3-ECD", "setting": "Human DLL3-ECD", "value": "1.31e-05", "unit": "s⁻¹"}, {"measurement": "Kon Human DLL3-ECD", "setting": "Human DLL3-ECD", "value": 102000, "unit": "M⁻¹ s⁻¹"}, {"measurement": "Kd", "setting": "pig DLL3-ECD", "value": 17.3, "unit": "nM"}, {"measurement": "Koff pig DLL3-ECD", "setting": "pig DLL3-ECD", "value": 0.000319, "unit": "s⁻¹"}, {"measurement": "Kon pig DLL3-ECD", "setting": "pig DLL3-ECD", "value": 18400, "unit": "M⁻¹ s⁻¹"}]}, {"molecule": "B4", "values": [{"measurement": "Mean Diff.", "setting": "hDLL3-MC38 tumors; Dunnett's multiple comparisons test, Buffer vs. 3 × 10μCi (1 week apart)", "value": 251.6}, {"measurement": "Mean Diff.", "setting": "hDLL3-MC38 tumors; Tukey's multiple comparisons test, Buffer vs. 3 × 10μCi", "value": 251.6}]}]}
